Columns and labels:
[1] = target: T1, human claudin-4 (residue: 1 to 183) synthesized in a cell-free system (human, UniProt O14493 1-183)
T1 sequence: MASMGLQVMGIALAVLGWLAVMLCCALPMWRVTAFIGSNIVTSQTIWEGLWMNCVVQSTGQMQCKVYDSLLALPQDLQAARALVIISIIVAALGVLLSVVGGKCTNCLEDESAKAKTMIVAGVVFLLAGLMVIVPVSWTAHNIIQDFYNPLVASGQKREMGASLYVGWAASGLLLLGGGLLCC

[2] = target: C-terminal fragment (C-CPE) of Clostridium perfringens enterotoxin (CPE) (Clostridium perfringens, UniProt P01558); conditions: read-out: KD value
[3] = GlcT enzyme activity (specific activity) of cell-free synthesized human GlcT; conditions: GlcT produced by liposome method with porcine brain lipid mixture

B1: GST tag-added C-CPE (ligand)
chain: RCVLTVPSTDIEKEILDLAAATERLNLTDALNSNPAGNLYDWRSSNSYPWTQKLNLHLTITATGQKYRILASKIVDFNIYSNNFNNLVKLEQSLGDGVKDHYVDISLDAGQYVLVMKANSSYSGNYPYSILFQKF
With B1 the Kd [1] was 3.4 nM.

B2: human claudin-4: Human claudin-4 (residue 1 to 183), 4-transmembrane tight junction protein produced by the cell-free lipid-detergent method (protein, UniProt O14493 1-183, looked up, fragment)
chain: MASMGLQVMGIALAVLGWLAVMLCCALPMWRVTAFIGSNIVTSQTIWEGLWMNCVVQSTGQMQCKVYDSLLALPQDLQAARALVIISIIVAALGVLLSVVGGKCTNCLEDESAKAKTMIVAGVVFLLAGLMVIVPVSWTAHNIIQDFYNPLVASGQKREMGASLYVGWAASGLLLLGGGLLCC
In the case of B2, the Kd [2] is reported as 3.4 nM.

B3: GlcT: Human glucosylceramide synthase, estimated 3-transmembrane enzyme, produced in a cell-free system with lipids (protein, UniProt Q16739 1-394, looked up)
Ceramide glucosyltransferase: MALLDLALEGMAVFGFVLFLVLWLMHFMAIIYTRLHLNKKATDKQPYSKLPGVSLLKPLKGVDPNLINNLETFFELDYPKYEVLLCVQDHDDPAIDVCKKLLGKYPNVDARLFIGGKKVGINPKINNLMPGYEVAKYDLIWICDSGIRVIPDTLTDMVNQMTEKVGLVHGLPYVADRQGFAATLEQVYFGTSHPRYYISANVTGFKCVTGMSCLMRKDVLDQAGGLIAFAQYIAEDYFMAKAIADRGWRFAMSTQVAMQNSGSYSISQFQSRMIRWTKLRINMLPATIICEPISECFVASLIIGWAAHHVFRWDIMVFFMCHCLAWFIFDYIQLRGVQGGTLCFSKLDYAVAWFIRESMTIYIFLSALWDPTISWRTGRYRLRCGGTAEEILDV
In the case of B3, the “specificity (specific activity) relative to sample produced with GalCer (5%), cholesterol (5%), egg PC (90%)” value [3] is reported as “approximately 2.7 times higher”.
